# Measurements from paper PMC6581175, “Versatile Oxidase and Dehydrogenase Activities of Bacterial Pyranose 2-Oxidase Facilitate Redox Cycling with Manganese Peroxidase In Vitro” (Applied and Environmental Microbiology, 2019).
# T1: KaPOx (Kitasatospora aureofaciens, UniProt A0A1E7NAU4)
# T1 construct: gene HS99_0024835
# T1 sequence (A0A1E7NAU4 1-545): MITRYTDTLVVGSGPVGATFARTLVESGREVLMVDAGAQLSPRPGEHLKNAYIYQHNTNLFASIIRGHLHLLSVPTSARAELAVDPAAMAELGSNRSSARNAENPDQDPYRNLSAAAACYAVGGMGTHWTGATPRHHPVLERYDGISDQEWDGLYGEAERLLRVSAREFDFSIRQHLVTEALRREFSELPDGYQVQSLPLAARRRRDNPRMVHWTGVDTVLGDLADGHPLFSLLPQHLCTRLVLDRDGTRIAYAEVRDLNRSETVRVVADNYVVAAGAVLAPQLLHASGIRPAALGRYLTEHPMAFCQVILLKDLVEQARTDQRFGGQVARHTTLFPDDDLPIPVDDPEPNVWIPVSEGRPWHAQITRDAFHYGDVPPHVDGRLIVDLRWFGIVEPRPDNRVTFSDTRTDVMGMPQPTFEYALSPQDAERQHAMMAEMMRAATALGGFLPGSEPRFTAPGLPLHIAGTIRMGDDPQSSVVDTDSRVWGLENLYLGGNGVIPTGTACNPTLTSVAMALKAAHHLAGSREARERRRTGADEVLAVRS
# B1: KaPOx (Kitasatospora aureofaciens) (protein)
# chain: T1 sequence (A0A1E7NAU4 1-545)
# notes: full-length synthetic gene, C-terminal 6xHis kept, N-terminal T7 tag excluded, pET-21b(+), E. coli T7 Express; no signal peptide predicted
# Tests used:
# KaPOx = biological target: T1, KaPOx; experiment: spectrophotometric electron acceptor reduction; conditions: apparent, 30 mM D-glucose, nitrogen-bubbled solutions, 50 mM Britton-Robinson pH 7.5, 30°C, kcat per dimer
# [1] = system: CCn1c(=N[N]c2sc3cc(S(=O)(=O)O)ccc3[n+]2CC)sc2cc(S(=O)(=O)O)ccc21; experiment: purified protein; conditions: pH 7.5; 30.0 °C
# purified protein [2] = substrate: O=C1C=CC(=O)C=C1; experiment: purified protein; conditions: apparent, electron acceptor, 30 mM D-glucose, nitrogen-bubbled solutions, 50 mM Britton-Robinson pH 7.5, 30°C, kcat per dimer
# purified protein [3] = substrate: O=C1C(Cl)=CC(=Nc2ccc(O)cc2)C=C1Cl; experiment: purified protein; conditions: apparent, electron acceptor, 30 mM D-glucose, nitrogen-bubbled solutions, 50 mM Britton-Robinson pH 7.5, 30°C, kcat per dimer
# purified protein [4] = substrate: O=C1O[C@H](CO)[C@@H](O)[C@H](O)[C@H]1O; experiment: purified protein; type: biochemical, Kitasatospora aureofaciens; conditions: apparent, electron donor, O2 at air saturation (about 250 uM), 50 mM Britton-Robinson pH 7.5, 30°C, kcat per dimer
molecule,measurement,setting,value
Ferrocenium ion,Km,KaPOx,1030 ± 1000 µM
KaPOx (Kitasatospora aureofaciens),Km,[1],40 ± 0 µM
same,Vmax,[1],6.1 µmol/min/mg
same,kcat/Km,[1],309000 M⁻¹ s⁻¹
B1,Km,purified protein [2],80 ± 100 µM
same,Vmax,purified protein [2],12.2 µmol/min/mg
same,kcat,purified protein [2],24.9 ± 7.1 s⁻¹
same,kcat/Km,purified protein [2],311000 M⁻¹ s⁻¹
same,Km,purified protein [3],30 ± 0 µM
same,Vmax,purified protein [3],4.4 µmol/min/mg
same,kcat,purified protein [3],9.4 ± 1.1 s⁻¹
same,kcat/Km,purified protein [3],313000 M⁻¹ s⁻¹
same,Km,purified protein [4],28700 ± 2400 µM
same,Vmax,purified protein [4],0.8 µmol/min/mg
same,kcat,purified protein [4],1.8 ± 0.1 s⁻¹
same,kcat/Km,purified protein [4],60 M⁻¹ s⁻¹
